Measured values: patent US20220119534A1 (DRAGONFLY THERAPEUTICS, published 2022)
Where “and” joins values, the source holds several entries; their conditions need not be identical. Equal entries are not always repeated. Blank lines part the entries; values can stand above or below the binder they belong to.

Legend:
[1] = molecular target: T1, Human CLEC12A expressed on cells (Ba/F3-hCLEC12A, PL21, HL60) (human, UniProt Q5QGZ9 1-265); experiment: cell-based or functional assay
T1 sequence: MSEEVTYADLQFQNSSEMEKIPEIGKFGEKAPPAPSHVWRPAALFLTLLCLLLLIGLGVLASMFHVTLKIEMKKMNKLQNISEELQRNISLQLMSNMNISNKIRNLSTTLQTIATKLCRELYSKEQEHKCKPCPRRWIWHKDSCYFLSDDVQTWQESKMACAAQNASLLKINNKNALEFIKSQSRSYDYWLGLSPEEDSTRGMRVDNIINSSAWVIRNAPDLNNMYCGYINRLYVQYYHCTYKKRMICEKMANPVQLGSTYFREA

[2] = molecular target: T2, Human CD16a F158 (FcγRIIIa F158) (human, UniProt P08637 17-208, biotinylated); experiment: SPR 25C, steady-state fit, average
T2 construct: Bought recombinant receptor; also called hFcγRIIIa F158
T2 sequence (P08637 17-208 limits assumed): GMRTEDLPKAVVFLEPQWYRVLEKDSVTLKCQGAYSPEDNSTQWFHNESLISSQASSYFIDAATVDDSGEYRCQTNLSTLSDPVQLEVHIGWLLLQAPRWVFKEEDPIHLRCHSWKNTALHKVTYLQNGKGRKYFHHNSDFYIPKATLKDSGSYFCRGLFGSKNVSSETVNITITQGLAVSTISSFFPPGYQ

Human FcRn = molecular target: T3, Human FcRn (human, UniProt P55899 24-297; P61769 21-119); experiment: SPR, steady state fit
T3 construct: Bought recombinant receptor; also called hFcRn

Cynomolgus FcRn = molecular target: T4, Cynomolgus FcRn (cynomolgus monkey, UniProt Q8SPV9 24-297; Q8SPW0 21-119); experiment: SPR, steady state fit
T4 construct: Bought recombinant receptor; also called cFcRn; Cyno FcRn
T4 sequence (Q8SPV9 24-297 limits assumed, chain 1 of 2): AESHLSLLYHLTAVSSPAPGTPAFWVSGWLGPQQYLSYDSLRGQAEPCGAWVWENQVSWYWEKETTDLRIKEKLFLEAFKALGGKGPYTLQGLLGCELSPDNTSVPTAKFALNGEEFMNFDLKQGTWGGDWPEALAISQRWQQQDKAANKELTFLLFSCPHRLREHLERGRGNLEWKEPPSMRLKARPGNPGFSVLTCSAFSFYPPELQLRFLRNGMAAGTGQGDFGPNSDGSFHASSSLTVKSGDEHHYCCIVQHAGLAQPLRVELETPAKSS
T4 sequence (Q8SPW0 21-119 limits assumed, chain 2 of 2): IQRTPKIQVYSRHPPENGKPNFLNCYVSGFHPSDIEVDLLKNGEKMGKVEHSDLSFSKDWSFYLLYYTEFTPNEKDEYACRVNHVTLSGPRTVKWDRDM

Human CLEC12A-His = molecular target: T5, Human CLEC12A-His (human, UniProt Q5QGZ9 65-265); experiment: SPR; sample after pH 5.0, 40 C, 2 weeks
T5 construct: Recombinant soluble protein made in house; also called hCLEC12A-His; hCLEC12A; not shown: His tag
T5 sequence: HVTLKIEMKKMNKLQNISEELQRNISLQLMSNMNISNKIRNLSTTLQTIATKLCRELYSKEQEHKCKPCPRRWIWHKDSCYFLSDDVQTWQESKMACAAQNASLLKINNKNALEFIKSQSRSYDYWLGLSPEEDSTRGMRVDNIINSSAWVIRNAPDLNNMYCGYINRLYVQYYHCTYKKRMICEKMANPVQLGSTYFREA

mFc-hNKG2D = molecular target: T6, mFc-hNKG2D (human, UniProt P26718 73-216); experiment: SPR; sample after pH 5.0, 40 C, 2 weeks
T6 construct: extracellular domain; Recombinant mFc-tagged NKG2D dimer, made in house; also called human NKG2D; not shown: mouse Fc tag
T6 sequence (looked up): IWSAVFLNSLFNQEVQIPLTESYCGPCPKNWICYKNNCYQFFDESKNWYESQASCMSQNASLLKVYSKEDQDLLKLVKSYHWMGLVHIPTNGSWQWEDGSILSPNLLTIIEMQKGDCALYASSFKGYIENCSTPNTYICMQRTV

Human CD16a V158 = molecular target: T7, Human CD16a V158 (human, UniProt P08637 17-208, biotinylated); experiment: SPR; sample after pH 5.0, 40 C, 2 weeks
T7 construct: Bought recombinant receptor; also called hCD16a (V158); hFcγRIIIa V158
T7 sequence (P08637 17-208 F176V limits assumed): as the sequence (P08637 17-208 limits assumed) above, with F160V counted along it

De-sialylated CLEC12A = molecular target: T8, De-sialylated CLEC12A (human, UniProt Q5QGZ9 65-265, treated with neuraminidase (terminal sialic acids removed)); experiment: SPR, de-sialylated CLEC12A; average of 3 replicates
T8 construct: Recombinant human CLEC12A after neuraminidase; also called de-sialylated hCLEC12A
T8 sequence: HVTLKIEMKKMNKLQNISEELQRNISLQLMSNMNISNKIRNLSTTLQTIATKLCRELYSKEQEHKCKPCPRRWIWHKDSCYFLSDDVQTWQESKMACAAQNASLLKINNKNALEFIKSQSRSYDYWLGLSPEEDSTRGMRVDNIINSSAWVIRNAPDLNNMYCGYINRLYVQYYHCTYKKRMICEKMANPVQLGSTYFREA

[3] = molecular target: T9, recombinant human CLEC12A-His (human, UniProt Q5QGZ9 65-265); experiment: SPR 37C
T9 construct: also called hCLEC12A-His; hCLEC12A
T9 sequence: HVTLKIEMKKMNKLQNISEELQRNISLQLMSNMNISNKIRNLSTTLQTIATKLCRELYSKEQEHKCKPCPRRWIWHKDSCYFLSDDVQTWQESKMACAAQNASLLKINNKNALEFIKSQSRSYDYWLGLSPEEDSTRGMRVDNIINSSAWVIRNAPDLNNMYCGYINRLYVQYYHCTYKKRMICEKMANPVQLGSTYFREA

[4] = molecular target: T9, recombinant human CLEC12A-His; experiment: SPR 37C; remark: listed apart in the source
[5] = molecular target: T10, human CLEC12A expressed on cells (human, UniProt Q5QGZ9 1-265); experiment: flow cytometry, HL60
T10 construct: Transduced isogenic cells or endogenous expression on AML cells; also called RMA-hCLEC12A; Ba/F3-hCLEC12A
T10 sequence: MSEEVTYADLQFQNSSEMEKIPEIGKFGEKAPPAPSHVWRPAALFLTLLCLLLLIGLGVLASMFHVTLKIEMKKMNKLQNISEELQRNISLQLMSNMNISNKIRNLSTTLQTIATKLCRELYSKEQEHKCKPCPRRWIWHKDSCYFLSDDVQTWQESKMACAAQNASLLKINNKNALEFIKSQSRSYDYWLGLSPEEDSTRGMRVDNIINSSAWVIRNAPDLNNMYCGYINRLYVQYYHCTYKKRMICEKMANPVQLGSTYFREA

EC50, rested NK cells lysis of HL60 cells (mean of four donors) [1]: 0.09 nM
Kd [2]: 1270 nM
B1: AB0089 TriNKET (bispecific antibody, human IgG1, kappa)
chain: QLQLQESGPGLVKPSETLSLTCTVSGFSLTNYGLHWIRQPPGKCLEWIGVIWVGGATDYNPSLKSRVTISVDTSKNQFSLKLSSVQAADTAVYYCAKGDYGDTLDYWGQGTLVTVSSGGGGSGGGGSGGGGSGGGGSDIQMTQSPSSLSASVGDRVTITCHASQNINFWLSWYQQKPGKAPKLLIYEASNLHTGVPSRFSGSGSGTDFTLTISSLQPEDFATYYCQQSHSYPLTFGCGTKLEIKGSDKTHTCPPCPAPELLGGPSVFLFPPKPKDTLMISRTPEVTCVVVDVSHEDPEVKFNWYVDGVEVHNAKTKPREEQYNSTYRVVSVLTVLHQDWLNGKEYKCKVSNKALPAPIEKTISKAKGQPREPRVYTLPPCRDELTKNQVSLTCLVKGFYPSDIAVEWESNGQPENNYKTTPPVLVSDGSFTLYSKLTVDKSRWQQGNVFSCSVMHEALHNHYTQKSLSLSPG
heavy: EVQLVESGGGLVKPGGSLRLSCAASGFTFSSYSMNWVRQAPGKGLEWVSSISSSSSYIYYADSVKGRFTISRDNAKNSLYLQMNSLRAEDTAVYYCARGAPIGAAAGWFDPWGQGTLVTVSSASTKGPSVFPLAPSSKSTSGGTAALGCLVKDYFPEPVTVSWNSGALTSGVHTFPAVLQSSGLYSLSSVVTVPSSSLGTQTYICNVNHKPSNTKVDKKVEPKSCDKTHTCPPCPAPELLGGPSVFLFPPKPKDTLMISRTPEVTCVVVDVSHEDPEVKFNWYVDGVEVHNAKTKPREEQYNSTYRVVSVLTVLHQDWLNGKEYKCKVSNKALPAPIEKTISKAKGQPREPQVCTLPPSRDELTENQVSLTCLVKGFYPSDIAVEWESNGQPENNYKTTPPVLDSDGSFFLYSWLTVDKSRWQQGNVFSCSVMHEALHNHYTQKSLSLSPG
light: DIQMTQSPSSVSASVGDRVTITCRASQGISSWLAWYQQKPGKAPKLLIYAASSLQSGVPSRFSGSGSGTDFTLTISSLQPEDFATYYCQQGVSFPRTFGGGTKVEIKRTVAAPSVFIFPPSDEQLKSGTASVVCLLNNFYPREAKVQWKVDNALQSGNSQESVTEQDSKDSTYSLSSTLTLSKADYEKHKVYACEVTHQGLSSPVTKSFNRGEC
notes: F3' format heterodimer of three chains; human IgG1 Fc with EW-RVT and Y349C/S354C mutations; also called AB0089 Lot AB0089-002; CLEC12A TriNKET AB0089

Kd (Human FcRn): 1500 nM and 1300 nM
Kd (Cynomolgus FcRn): 1500 nM and 1400 nM and 1200 nM
Kd (Human CLEC12A-His): 1.65 nM
koff (Human CLEC12A-His): 0.0013 s⁻¹
kon (Human CLEC12A-His): 787000 M⁻¹ s⁻¹
Kd (mFc-hNKG2D): 574 nM
koff (mFc-hNKG2D): 0.12 s⁻¹
kon (mFc-hNKG2D): 210000 M⁻¹ s⁻¹
Kd (Human CD16a V158): 192 nM
koff (Human CD16a V158): 0.0208 s⁻¹
kon (Human CD16a V158): 108000 M⁻¹ s⁻¹
Kd (De-sialylated CLEC12A): 1.04 nM
koff (De-sialylated CLEC12A): 0.00104 s⁻¹
kon (De-sialylated CLEC12A): 1.01e+06 M⁻¹ s⁻¹
B2: AB0192 TriNKET (other)
chain: EVQLVESGGGVVQPGGSLRLSCAASGFTFNAFGMHWVRQAPGKCLEWVAFISSGSTSIYYANTVKGRFTISRDNSKNTLYLQMNSLRAEDTAVYYCARDGYPTGGAMDYWGQGTSVTVSSGGGGSGGGGSGGGGSGGGGSDIQMTQSPSSLSASVGDRVTITCKASQDIYNYLSWFQQKPGKAPKPLIYRANILVSGVPSRFSGSGSGQDYTFTISSLQPEDIATYYCLQFDAFPFTFGCGTKLEIKGSDKTHTCPPCPAPELLGGPSVFLFPPKPKDTLMISRTPEVTCVVVDVSHEDPEVKFNWYVDGVEVHNAKTKPREEQYNSTYRVVSVLTVLHQDWLNGKEYKCKVSNKALPAPIEKTISKAKGQPREPRVYTLPPCRDELTKNQVSLTCLVKGFYPSDIAVEWESNGQPENNYKTTPPVLVSDGSFTLYSKLTVDKSRWQQGNVFSCSVMHEALHNHYTQKSLSLSPG
heavy: EVQLVESGGGLVKPGGSLRLSCAASGFTFSSYSMNWVRQAPGKGLEWVSSISSSSSYIYYADSVKGRFTISRDNAKNSLYLQMNSLRAEDTAVYYCARGAPIGAAAGWFDPWGQGTLVTVSSASTKGPSVFPLAPSSKSTSGGTAALGCLVKDYFPEPVTVSWNSGALTSGVHTFPAVLQSSGLYSLSSVVTVPSSSLGTQTYICNVNHKPSNTKVDKKVEPKSCDKTHTCPPCPAPELLGGPSVFLFPPKPKDTLMISRTPEVTCVVVDVSHEDPEVKFNWYVDGVEVHNAKTKPREEQYNSTYRVVSVLTVLHQDWLNGKEYKCKVSNKALPAPIEKTISKAKGQPREPQVCTLPPSRDELTENQVSLTCLVKGFYPSDIAVEWESNGQPENNYKTTPPVLDSDGSFFLYSWLTVDKSRWQQGNVFSCSVMHEALHNHYTQKSLSLSPG
light: DIQMTQSPSSVSASVGDRVTITCRASQGISSWLAWYQQKPGKAPKLLIYAASSLQSGVPSRFSGSGSGTDFTLTISSLQPEDFATYYCQQGVSFPRTFGGGTKVEIKRTVAAPSVFIFPPSDEQLKSGTASVVCLLNNFYPREAKVQWKVDNALQSGNSQESVTEQDSKDSTYSLSSTLTLSKADYEKHKVYACEVTHQGLSSPVTKSFNRGEC
notes: the condition stands under assay; also called AB0192 Lot AB0192-005

fold lower KD than F3'-1295 [3]: ~2 fold
Kd [4]: 0.58 nM and 0.59 nM and 0.57 nM and 0.6 nM
koff [4]: 0.000494 s⁻¹ and 0.000489 s⁻¹ and 0.000499 s⁻¹
kon [4]: 854000 M⁻¹ s⁻¹ and 833000 M⁻¹ s⁻¹ and 863000 M⁻¹ s⁻¹ and 826000 M⁻¹ s⁻¹
EC50 [5]: 1.1 nM
B3: F3'-1602 TriNKET (other)
chain: QLQLQESGPGLVKPSETLSLTCTVSGFSLTNYGLHWIRQPPGKCLEWIGVIWSGGKTDYNPSLKSRVTISKDTSKNQFSLKLSSVQAADTAVYYCAKYDYDDSLDYWGQGTLVTVSSGGGGSGGGGSGGGGSGGGGSDIQMTQSPSSLSASVGDRVTITCHASQNINFWLSWYQQKPGKAPKLLIYEASNLHTGVPSRFSGSGSGTRFTLTISSLQPEDIATYYCQQSHSYPLTFGCGTKLEIKGSDKTHTCPPCPAPELLGGPSVFLFPPKPKDTLMISRTPEVTCVVVDVSHEDPEVKFNWYVDGVEVHNAKTKPREEQYNSTYRVVSVLTVLHQDWLNGKEYKCKVSNKALPAPIEKTISKAKGQPREPRVYTLPPCRDELTKNQVSLTCLVKGFYPSDIAVEWESNGQPENNYKTTPPVLVSDGSFTLYSKLTVDKSRWQQGNVFSCSVMHEALHNHYTQKSLSLSPG
heavy: EVQLVESGGGLVKPGGSLRLSCAASGFTFSSYSMNWVRQAPGKGLEWVSSISSSSSYIYYADSVKGRFTISRDNAKNSLYLQMNSLRAEDTAVYYCARGAPIGAAAGWFDPWGQGTLVTVSSASTKGPSVFPLAPSSKSTSGGTAALGCLVKDYFPEPVTVSWNSGALTSGVHTFPAVLQSSGLYSLSSVVTVPSSSLGTQTYICNVNHKPSNTKVDKKVEPKSCDKTHTCPPCPAPELLGGPSVFLFPPKPKDTLMISRTPEVTCVVVDVSHEDPEVKFNWYVDGVEVHNAKTKPREEQYNSTYRVVSVLTVLHQDWLNGKEYKCKVSNKALPAPIEKTISKAKGQPREPQVCTLPPSRDELTENQVSLTCLVKGFYPSDIAVEWESNGQPENNYKTTPPVLDSDGSFFLYSWLTVDKSRWQQGNVFSCSVMHEALHNHYTQKSLSLSPG
light: DIQMTQSPSSVSASVGDRVTITCRASQGISSWLAWYQQKPGKAPKLLIYAASSLQSGVPSRFSGSGSGTDFTLTISSLQPEDFATYYCQQGVSFPRTFGGGTKVEIKRTVAAPSVFIFPPSDEQLKSGTASVVCLLNNFYPREAKVQWKVDNALQSGNSQESVTEQDSKDSTYSLSSTLTLSKADYEKHKVYACEVTHQGLSSPVTKSFNRGEC
notes: CLEC12A scFv-Fc, NKG2D A49MI Fab-Fc, human IgG1 Fc; also called AB0237
